Experimental findings from patent US20220332759A1, “TARGETED PULMONARY DELIVERY COMPOSITIONS AND METHODS USING SAME” (Rutgers, The State University of New Jersey, priority 2019, published 2022) are described below.

Ends that are not written are not given here.

Assay [1] concerns the target T1, human recombinant α3β1 integrin (Homo sapiens, UniProt P05556+P26006).
T1 construct: purchased R&D Systems
In words: Phage binding assay to immobilized recombinant proteins. The conditions noted are these: increasing molar concentrations, relative to unrelated control peptide. Here is the method:
Phage binding to recombinant proteins (α3β1, α6β1, α6β4, NRP-1 and SDC-1) and BSA (Sigma) were performed as described (Cardó-Vila, et al., 2008, PLoS One 3:e3452). Briefly, 100 ng of each of the indicated proteins dissolved in 50 μL PBS were immobilized in microtiter wells overnight (ON) at 4° C. […] After 2 h at RT, wells were gently washed 10 times with PBS, and phage was recovered by host bacterial infection and represented as “Relative TU” as an empirical measure of the biological replicates and controls when compared to one another as described (Arap, W. et al., Nat. Med., 2002, 8:121-127; Cardó-Vila, et al., 2008, PLoS One 3:e3452). Human recombinant proteins α3β1, α6β1, α6β4, NRP-1 and SDC-1 were all commercially obtained from R&D Systems. Recombinant GST and […]-GST were produced in E. coli transformed with the pGEX4T-1 plasmid (Amersham, GE Healthcare) and purified with standard protocols. All synthetic peptides were custom manufactured by Merrifield synthesis and quality-controlled to the necessary specifications (Biomatik and PolyPeptide Laboratories).

In the next assay the test system is A549 cell monolayer. In words: Cellular barrier permeability (Transwell) assay and empirical model of phage transport. Type of assay: in vitro ADME, human. The conditions noted are these: A549 cells, different concentrations, 1 h. The source says:
To investigate the transport of phage particles across the cellular monolayer, data from the in vitro Transwell assays (FIG. 3E) was used to quantify the parameters of an empirical mathematical model of phage accumulation in the bottom chamber (Equation 1). The mass of phage particles [N(t), measured experimentally as TU] transported across the cellular barrier at time t, was represented by Equation (Eq. 1), as follows:
where, Ns represent the mass of phage particles (TU) in the bottom chamber at saturation; k is the transport rate constant, the inverse of which gives the characteristic time (τ=1/k) of the transport process. The first derivative of Equation 1
provides the time-dependent transport rate of phage particles across the in vitro cellular barrier. Least squares fitting of the model to the experimental data was performed in MATLAB. The transport rate decays exponentially over time at rate k, and its maximal value can be determined at time t=0 as […]

The target of assay [2] is T2, human recombinant α3β1 integrin (human, UniProt P26006 33-991; P05556 21-728).
T2 construct: Bought protein, 100 ng immobilised in microtiter wells; also called α3β1 integrins
T2 sequence (P26006 33-991 limits assumed, chain 1 of 2): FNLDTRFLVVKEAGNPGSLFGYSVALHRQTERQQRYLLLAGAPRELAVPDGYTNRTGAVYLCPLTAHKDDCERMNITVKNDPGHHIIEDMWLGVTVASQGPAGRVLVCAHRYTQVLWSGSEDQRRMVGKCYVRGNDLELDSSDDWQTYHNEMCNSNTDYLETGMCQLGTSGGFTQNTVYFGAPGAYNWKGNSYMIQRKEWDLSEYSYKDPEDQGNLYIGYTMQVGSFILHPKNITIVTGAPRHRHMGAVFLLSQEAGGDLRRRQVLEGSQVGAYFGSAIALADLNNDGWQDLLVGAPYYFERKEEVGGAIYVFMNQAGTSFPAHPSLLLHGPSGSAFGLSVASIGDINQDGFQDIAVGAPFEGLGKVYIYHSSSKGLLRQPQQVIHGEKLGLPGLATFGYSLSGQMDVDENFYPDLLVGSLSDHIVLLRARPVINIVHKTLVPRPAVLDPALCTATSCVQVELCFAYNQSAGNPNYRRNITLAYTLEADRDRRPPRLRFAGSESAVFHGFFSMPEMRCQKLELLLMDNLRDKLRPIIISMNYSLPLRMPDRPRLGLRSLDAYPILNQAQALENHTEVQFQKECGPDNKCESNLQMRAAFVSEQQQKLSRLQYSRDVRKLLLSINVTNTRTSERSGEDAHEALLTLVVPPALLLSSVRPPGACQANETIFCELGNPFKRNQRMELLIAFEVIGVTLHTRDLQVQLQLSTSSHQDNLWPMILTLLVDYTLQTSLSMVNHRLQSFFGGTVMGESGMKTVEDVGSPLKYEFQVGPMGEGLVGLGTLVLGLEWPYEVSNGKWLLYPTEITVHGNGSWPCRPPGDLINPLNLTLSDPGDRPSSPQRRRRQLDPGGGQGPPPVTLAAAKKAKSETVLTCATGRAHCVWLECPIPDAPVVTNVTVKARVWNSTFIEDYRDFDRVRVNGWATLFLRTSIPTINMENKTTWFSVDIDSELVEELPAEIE
T2 sequence (P05556 21-728 limits assumed, chain 2 of 2): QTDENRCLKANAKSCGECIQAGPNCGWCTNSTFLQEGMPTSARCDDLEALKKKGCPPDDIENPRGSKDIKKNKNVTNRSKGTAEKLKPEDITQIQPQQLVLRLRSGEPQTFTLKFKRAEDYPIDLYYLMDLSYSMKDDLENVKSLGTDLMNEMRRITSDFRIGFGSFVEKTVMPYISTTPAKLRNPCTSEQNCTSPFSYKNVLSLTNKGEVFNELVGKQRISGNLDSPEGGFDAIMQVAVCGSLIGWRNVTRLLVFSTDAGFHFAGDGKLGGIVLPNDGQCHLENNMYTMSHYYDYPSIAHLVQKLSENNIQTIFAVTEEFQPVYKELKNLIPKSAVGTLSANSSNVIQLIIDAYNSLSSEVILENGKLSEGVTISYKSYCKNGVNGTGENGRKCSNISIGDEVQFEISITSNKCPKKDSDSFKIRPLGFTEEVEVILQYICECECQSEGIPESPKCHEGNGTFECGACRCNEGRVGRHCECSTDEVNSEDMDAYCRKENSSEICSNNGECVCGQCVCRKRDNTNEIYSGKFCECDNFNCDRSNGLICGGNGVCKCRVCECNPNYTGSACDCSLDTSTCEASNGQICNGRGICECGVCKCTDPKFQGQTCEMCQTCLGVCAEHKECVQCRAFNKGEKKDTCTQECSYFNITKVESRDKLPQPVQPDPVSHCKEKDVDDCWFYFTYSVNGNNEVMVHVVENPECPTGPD
In words: competition of phage binding to immobilised α3β1 (FIG. 3B).

The target in assay [3] is T3, mouse α3β1 integrin expressed on the plasma membrane of AT1 and AT2 alveolar epithelial cells and club cells (mouse, UniProt Q62470 33-1053; P09055 21-798).
T3 construct: whole, on cells; Target on lung cells of BALB/c mice after aerosol administration of phage; also called α3β1 integrins in lung tissue; α3β1 integrin in vivo
T3 sequence (Q62470 33-1053, chain 1 of 2): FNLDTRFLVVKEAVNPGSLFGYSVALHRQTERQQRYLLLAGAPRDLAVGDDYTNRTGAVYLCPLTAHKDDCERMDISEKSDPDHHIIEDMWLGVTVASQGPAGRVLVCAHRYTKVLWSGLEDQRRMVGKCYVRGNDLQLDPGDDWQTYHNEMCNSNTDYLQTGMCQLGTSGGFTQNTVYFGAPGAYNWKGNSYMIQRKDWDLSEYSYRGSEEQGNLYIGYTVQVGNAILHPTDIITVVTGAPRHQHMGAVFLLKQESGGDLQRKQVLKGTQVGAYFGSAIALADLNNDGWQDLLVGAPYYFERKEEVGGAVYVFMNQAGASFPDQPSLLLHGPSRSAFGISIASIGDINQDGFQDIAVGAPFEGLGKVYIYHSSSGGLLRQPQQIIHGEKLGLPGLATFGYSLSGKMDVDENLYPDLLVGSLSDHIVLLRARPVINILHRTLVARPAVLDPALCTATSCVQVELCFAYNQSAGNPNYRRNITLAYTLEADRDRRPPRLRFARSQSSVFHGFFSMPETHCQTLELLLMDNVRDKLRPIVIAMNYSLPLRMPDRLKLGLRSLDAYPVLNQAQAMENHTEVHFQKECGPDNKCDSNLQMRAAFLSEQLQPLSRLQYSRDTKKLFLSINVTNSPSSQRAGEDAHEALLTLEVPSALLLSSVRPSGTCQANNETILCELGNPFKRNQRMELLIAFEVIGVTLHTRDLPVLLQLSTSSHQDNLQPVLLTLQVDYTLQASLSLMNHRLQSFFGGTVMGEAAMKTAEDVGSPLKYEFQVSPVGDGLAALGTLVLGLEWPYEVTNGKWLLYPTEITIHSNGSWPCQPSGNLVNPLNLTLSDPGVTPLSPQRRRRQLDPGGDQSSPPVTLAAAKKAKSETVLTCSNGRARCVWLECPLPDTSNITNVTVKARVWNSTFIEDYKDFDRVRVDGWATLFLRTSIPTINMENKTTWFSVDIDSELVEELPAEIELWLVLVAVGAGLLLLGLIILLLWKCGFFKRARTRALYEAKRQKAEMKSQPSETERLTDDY
T3 sequence (P09055 21-798, chain 2 of 2): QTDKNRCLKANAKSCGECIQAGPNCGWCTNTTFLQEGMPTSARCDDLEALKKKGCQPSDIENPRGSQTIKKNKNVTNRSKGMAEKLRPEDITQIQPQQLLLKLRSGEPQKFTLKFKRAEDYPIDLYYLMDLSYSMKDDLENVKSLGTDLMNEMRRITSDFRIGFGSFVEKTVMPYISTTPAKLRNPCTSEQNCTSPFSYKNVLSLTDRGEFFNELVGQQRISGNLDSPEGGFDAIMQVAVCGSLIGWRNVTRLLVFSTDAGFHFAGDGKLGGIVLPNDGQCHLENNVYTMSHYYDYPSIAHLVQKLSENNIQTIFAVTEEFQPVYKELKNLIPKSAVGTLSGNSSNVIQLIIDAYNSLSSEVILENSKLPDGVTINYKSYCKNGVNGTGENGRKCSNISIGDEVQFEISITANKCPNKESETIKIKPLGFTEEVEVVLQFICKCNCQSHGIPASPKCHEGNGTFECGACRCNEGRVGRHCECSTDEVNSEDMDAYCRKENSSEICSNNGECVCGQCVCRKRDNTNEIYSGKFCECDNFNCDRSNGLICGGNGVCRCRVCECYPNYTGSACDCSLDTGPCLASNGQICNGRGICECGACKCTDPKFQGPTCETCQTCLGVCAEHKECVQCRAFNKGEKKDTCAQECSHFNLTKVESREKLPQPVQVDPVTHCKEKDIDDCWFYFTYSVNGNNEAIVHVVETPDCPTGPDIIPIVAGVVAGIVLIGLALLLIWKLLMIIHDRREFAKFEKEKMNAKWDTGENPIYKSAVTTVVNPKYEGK
In words: TU count of phage recovered from flow-sorted mouse lung cells after aerosol administration.
Method: Cells were sorted in an iCyt sy3200 (Sony) cell sorter previously calibrated with compensation beads (UltraComp eBeads, Thermo Scientific). AT1-, AT2-enriched cell populations and macrophages were centrifuged, and the number of phage particles per cell type was determined by TU count.
To further evaluate the bioavailability of [sequence]-displaying phage particles after aerosol administration, the binding capabilities of the phage particles to specific lung cells were determined by flow cytometry. […] Specific cell populations of the lung were isolated and flow cytometry sorted in three main cell populations (FIG. 5A): AT1-enriched population (EPCAM⁺, CD45⁻, CD31⁻, T1α^high); AT2-enriched population (EPCAM⁺, CD45⁻, CD31⁻, Tα^low) and mononuclear phagocytes (EPCAM⁻, CD45⁺, CD31⁻, F4/80⁺). The number of either targeted or control phage particles bound to each cell population was determined by TU counting after infection with a host bacterium.

T1 sequence (P26006 33-991 limits assumed): as the sequence (P26006 33-991 limits assumed, chain 1 of 2) above
T1 sequence (P05556 21-728 limits assumed): as the sequence (P05556 21-728 limits assumed, chain 2 of 2) above

For the molecule “CAKSMGDIVC [index ligand transport peptide; soluble synthetic peptide produced through Merrifield synthesis]”, the “inhibition of CAKSMGDIVC-displaying phage binding to α3β1 integrin” value in assay [1] was “Concentration-dependent inhibition”.
Regarding “CAKSMGDIVC-GST: recombinant CAKSMGDIVC-GST produced in E. coli transformed with the pGEX4T-1 plasmid (CAKSMGDIVC-{GST}; cysteine pairing not given here)”, the “competition of CAKSMGDIVC-displaying phage transport in Transwell” value in the assay on A549 cell monolayer is on record as “concentration-dependent ligand-receptor specificity”.

B1: synthetic CAKSMGDIVC peptide (peptide)
peptide: CAKSMGDIVC
notes: Made by Merrifield synthesis; also called cognate synthetic peptide
Take B1: the binding result in assay [2] is given as “binds”.

B2: targeted CAKSMGDIVC-displaying phage particles (other, not shown: large carriers)
chain: CAKSMGDIVC
modifications: not fully specified (bridges); cysteine pairing not given here; also: displayed on phage pIII
notes: Whole phage particle; also called phage clone 2
For B2, the “fold binding to AT1-enriched population against AT2-enriched cells” value in assay [3] is approximately 2 fold.
